CN115724950A (YIDAO BIOTECHNOLOGY SUZHOU CO LTD, dated 2023)

T1: HPV6-GFP假病毒 (Human papillomavirus type 6, UniProt P69899 1-500)
T1 sequence: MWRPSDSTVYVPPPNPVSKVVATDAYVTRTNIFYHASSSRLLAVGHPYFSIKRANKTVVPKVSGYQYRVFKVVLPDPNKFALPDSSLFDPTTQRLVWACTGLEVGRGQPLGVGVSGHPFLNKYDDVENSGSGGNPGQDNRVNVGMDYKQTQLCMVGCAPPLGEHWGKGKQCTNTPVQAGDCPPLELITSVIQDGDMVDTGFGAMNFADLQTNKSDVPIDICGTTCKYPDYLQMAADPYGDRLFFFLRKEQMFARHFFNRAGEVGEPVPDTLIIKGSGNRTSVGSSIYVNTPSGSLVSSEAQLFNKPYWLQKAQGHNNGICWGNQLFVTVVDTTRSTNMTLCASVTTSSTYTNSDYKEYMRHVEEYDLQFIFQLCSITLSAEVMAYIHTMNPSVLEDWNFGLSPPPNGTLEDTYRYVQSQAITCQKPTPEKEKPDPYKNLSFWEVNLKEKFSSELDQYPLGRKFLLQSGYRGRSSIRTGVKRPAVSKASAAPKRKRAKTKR

T2: HPV 18 抗原 (Human papillomavirus type 18, UniProt P06794 62-568)
T2 sequence: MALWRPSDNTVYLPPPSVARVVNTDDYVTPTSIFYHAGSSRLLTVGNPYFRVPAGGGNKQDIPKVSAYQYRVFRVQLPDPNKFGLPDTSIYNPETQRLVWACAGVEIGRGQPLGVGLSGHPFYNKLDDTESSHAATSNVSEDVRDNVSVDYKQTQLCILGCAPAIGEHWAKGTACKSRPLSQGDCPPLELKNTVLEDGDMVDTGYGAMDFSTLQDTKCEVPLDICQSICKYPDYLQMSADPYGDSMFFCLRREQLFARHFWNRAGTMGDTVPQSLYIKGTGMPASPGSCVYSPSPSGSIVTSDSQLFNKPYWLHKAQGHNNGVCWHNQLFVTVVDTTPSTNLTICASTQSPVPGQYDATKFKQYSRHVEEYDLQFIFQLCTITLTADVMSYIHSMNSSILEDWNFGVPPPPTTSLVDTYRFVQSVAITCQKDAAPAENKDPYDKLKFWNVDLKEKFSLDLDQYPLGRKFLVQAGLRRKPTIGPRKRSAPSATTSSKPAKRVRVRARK

T3: HPV11 抗原 (Human papillomavirus type 11, UniProt P04012 1-501)
T3 sequence: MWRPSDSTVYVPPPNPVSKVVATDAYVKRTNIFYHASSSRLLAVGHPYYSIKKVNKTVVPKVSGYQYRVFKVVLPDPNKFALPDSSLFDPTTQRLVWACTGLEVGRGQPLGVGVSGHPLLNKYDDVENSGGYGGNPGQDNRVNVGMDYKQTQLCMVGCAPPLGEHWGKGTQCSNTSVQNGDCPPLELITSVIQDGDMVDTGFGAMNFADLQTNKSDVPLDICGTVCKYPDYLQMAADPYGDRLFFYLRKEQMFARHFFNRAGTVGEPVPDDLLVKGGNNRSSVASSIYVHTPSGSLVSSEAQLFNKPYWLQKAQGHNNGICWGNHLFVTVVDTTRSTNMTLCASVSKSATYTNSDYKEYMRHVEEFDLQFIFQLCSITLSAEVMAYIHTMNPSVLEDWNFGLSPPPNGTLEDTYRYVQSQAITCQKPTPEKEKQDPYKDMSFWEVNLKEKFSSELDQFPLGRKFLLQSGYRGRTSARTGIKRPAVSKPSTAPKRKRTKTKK

T4: HPV 33 抗原 (Human papillomavirus type 33, UniProt P06416 1-499)
T4 sequence: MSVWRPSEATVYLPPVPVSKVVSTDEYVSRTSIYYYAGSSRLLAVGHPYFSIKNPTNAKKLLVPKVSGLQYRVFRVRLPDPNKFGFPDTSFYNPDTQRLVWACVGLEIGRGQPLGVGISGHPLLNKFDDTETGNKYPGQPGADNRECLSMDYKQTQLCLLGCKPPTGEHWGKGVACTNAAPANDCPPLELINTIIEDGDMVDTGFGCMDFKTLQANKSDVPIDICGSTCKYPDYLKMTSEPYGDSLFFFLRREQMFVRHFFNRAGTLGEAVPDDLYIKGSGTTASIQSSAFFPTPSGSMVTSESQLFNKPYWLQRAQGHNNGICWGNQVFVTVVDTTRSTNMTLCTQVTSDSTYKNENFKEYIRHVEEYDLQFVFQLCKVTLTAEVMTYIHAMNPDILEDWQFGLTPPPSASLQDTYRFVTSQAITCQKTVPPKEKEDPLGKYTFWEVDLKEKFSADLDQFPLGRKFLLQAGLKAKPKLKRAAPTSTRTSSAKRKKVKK

T5: HPV 45 抗原 (Human papillomavirus type 45, UniProt P36741 27-539)
T5 sequence: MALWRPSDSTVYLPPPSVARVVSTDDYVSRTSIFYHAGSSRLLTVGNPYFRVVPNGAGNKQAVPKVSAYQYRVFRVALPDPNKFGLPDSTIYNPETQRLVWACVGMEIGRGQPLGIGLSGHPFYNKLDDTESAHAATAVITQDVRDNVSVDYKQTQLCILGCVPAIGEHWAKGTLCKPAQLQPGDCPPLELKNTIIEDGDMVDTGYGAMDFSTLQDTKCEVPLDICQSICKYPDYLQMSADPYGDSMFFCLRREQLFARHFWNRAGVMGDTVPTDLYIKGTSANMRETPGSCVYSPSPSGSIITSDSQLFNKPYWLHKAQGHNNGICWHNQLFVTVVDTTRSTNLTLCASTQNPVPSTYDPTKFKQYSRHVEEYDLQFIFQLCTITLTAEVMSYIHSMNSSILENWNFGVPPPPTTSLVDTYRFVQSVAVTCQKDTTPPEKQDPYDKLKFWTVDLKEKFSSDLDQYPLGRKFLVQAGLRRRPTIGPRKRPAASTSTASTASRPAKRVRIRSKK

T6: HPV 58 抗原 (Human papillomavirus type 58, UniProt P26535 27-524)
T6 sequence: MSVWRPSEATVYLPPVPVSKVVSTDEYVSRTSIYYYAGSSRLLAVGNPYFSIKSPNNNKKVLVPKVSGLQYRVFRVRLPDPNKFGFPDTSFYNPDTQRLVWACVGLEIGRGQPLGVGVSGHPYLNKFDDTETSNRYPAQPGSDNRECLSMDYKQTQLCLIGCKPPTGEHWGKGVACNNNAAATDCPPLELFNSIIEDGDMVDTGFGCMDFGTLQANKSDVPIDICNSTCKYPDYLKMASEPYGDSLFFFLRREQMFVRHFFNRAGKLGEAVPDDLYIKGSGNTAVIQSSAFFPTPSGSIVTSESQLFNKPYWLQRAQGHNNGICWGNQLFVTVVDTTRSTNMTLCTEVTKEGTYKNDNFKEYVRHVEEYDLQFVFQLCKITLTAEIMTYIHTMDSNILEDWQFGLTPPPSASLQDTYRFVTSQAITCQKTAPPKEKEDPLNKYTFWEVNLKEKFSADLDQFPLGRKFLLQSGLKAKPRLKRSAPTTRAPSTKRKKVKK

T7: HPV 16 抗原 (Human papillomavirus type 16, UniProt P03101 1-505)
T7 sequence: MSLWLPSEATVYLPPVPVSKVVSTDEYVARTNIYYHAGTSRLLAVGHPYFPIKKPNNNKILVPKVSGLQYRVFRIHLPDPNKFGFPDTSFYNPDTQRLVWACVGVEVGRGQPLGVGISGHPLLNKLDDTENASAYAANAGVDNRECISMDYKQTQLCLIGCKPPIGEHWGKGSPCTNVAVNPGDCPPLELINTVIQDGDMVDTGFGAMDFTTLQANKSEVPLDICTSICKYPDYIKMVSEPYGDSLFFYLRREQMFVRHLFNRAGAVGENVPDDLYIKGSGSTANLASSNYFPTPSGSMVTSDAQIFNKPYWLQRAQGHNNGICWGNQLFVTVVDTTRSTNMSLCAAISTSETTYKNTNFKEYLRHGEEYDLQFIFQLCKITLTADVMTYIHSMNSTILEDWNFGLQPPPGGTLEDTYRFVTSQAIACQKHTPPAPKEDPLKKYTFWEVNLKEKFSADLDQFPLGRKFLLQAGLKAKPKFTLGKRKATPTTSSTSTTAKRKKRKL

T8: HPV31 抗原 (Human papillomavirus type 31, UniProt P17388 1-504)
T8 sequence: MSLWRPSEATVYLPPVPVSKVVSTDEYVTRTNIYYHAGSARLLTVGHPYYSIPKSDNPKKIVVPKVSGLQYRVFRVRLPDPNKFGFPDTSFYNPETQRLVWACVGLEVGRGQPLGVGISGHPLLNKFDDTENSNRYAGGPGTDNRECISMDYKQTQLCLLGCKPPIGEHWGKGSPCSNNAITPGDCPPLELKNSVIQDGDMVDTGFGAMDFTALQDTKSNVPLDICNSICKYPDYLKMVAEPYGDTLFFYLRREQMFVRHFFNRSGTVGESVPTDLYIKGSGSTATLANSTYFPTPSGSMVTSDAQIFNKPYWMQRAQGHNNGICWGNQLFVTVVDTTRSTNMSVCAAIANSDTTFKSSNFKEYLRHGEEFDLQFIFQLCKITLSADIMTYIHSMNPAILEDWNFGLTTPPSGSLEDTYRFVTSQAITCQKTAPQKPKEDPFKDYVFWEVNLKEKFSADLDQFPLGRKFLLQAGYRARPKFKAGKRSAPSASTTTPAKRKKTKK

B1: 6H1 鼠源单克隆抗体 (杂交瘤 CGMCC No.45134) (antibody, V domains shown)
VH: EVQLQQSGPEVVKTGASVKISCKASGYSFTGYYMHWVKQSHGKSLEWIGYISCYNGATSYNQKFKGKATFTLDTSSSTAYMQFNSLTSEDSAVYYCAREDEYDGAYYLDYWGQGTTLTVSS
VL: DIVMTQSQKFMSTSVGDRVSVTCKASQNVGTNVAWYQQKPGQSPKTLIYSASYRYSGVPDRFTGSGSGTDFTLTISNVQSEDLAEYFCQQYFRYPLTFGAGTKLELK
notes: Tested as hybridoma supernatant (1.3, 1.4) and as protein G purified ascites antibody (1.6, 3.1); also called 第二单克隆抗体; 6H1 Lot#:2021081604
B2: 1G11 鼠源单克隆抗体 (杂交瘤 CGMCC No.45133) (antibody, V domains shown)
VH: EVKLVESGGGLVKPGGSLKLSCAASGVTFSSYAMSWVRQTPEKRLEWVASITRGGSTYYPDSVKGRFTISRDNARNILYLQMSSLRSEDTAMYYCAREGEDYYGSSYVDYWGQGTTLTVSS
VL: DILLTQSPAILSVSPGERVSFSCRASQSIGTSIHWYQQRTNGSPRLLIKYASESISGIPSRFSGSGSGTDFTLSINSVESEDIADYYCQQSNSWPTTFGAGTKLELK
notes: Tested as hybridoma supernatant (1.3, 1.4) and as protein G purified ascites antibody (1.6, 3.1); also called 第一单克隆抗体; 1G11 Lot#:2021081603

What was measured:
HPV6-GFP假病毒 = biological target: T1, HPV6-GFP假病毒; test: cell-based or functional assay
HPV 18 抗原 = biological target: T2, HPV 18 抗原; test: indirect ELISA, antigen coated at 1 μg/ml, supernatant diluted 20-fold
HPV11 抗原 = biological target: T3, HPV11 抗原; test: as above
HPV 33 抗原 = biological target: T4, HPV 33 抗原; test: as above
HPV 45 抗原 = biological target: T5, HPV 45 抗原; test: as above
HPV 58 抗原 = biological target: T6, HPV 58 抗原; test: as above
HPV 16 抗原 = biological target: T7, HPV 16 抗原; test: as above
HPV31 抗原 = biological target: T8, HPV31 抗原; test: as above

Row | Binder | 假病毒中和实验 (HPV6-GFP假病毒, 293FT细胞, 荧光斑点数) (HPV6-GFP假病毒) | 假病毒中和实验, 中和活性 (HPV6-GFP假病毒) | binding result (HPV 18 抗原) | binding result (HPV11 抗原) | binding result (HPV 33 抗原) | binding result (HPV 45 抗原) | binding result (HPV 58 抗原) | binding result (HPV 16 抗原) | binding result (HPV31 抗原)
1 | B1 | ≥ 5120 fold dilution of supernatant | 20500 fold dilution (titre) | no binding | no binding | no binding | no binding | no binding | no binding | no binding
2 | B2 | ≥ 5120 fold dilution of supernatant | 20500 fold dilution (titre) | no binding | no binding | no binding | no binding | no binding | no binding | no binding
